According to US20240374746A1 (TALLAC THERAPEUTICS, published 2024):

What was measured:
[1] = molecular target: T1, human SIRP-α V2 D1 domain-6His (human); experiment: SPR (Biacore 8K), conjugate captured on Protein A chip, His-tagged SIRP-α as analyte, single cycle kinetics; pH 7.4, 37 C
T1 construct: also called Analyte B
Experimental: (§1) Binding of the anti-SIRP-α antibody conjugate was measured using a Biacore 8K high throughput, high-sensitivity SPR system (Cytiva, Global Life Sciences Solutions USA LLC, Marlborough, MA) equipped with S-type sensor chips. The interaction of the conjugate with SIRP-α was analyzed by flowing His-tagged SIRP-α over Protein A captured anti-SIRP-α antibody conjugate on a Biacore Series S Protein A Sensor Chip. The anti-SIRP-α antibody portion of the conjugate comprised a heavy chain comprising the sequence of SEQ ID NO:66 and a light chain comprising the sequence of SEQ ID NO:73 conjugated to CpG oligo 7-7 (SEQ ID NO: 35).
(§2) All SIRP-α analytes were injected in single cycle kinetics mode at nominal starting concentrations of 100 nM with 3-fold serial dilutions with the exception of rat SIRP-α. Higher starting concentration of 300 nM was used for assessing binding to rat SIRP-α at pH 7.4. Association times were monitored for 120 s, and dissociation times were monitored 600 s at 30 μL/min flow rate. The surfaces were regenerated with 75 mM phosphoric acid at pH1.65 for two pulses of 15 s at 30 μL/min flow rate. Experiments were done at either 25° C. or 37° C. and at pH 6.0 or 7.4. Assay buffers were 1×PBS 0.01% Tween-20 at pH 6.0 with and 1×HBS-EP+ (10 mM HEPES, pH7.4, 150 mM NaCl, 3 mM EDTA, 0.05% (v/v) Surfactant P20) at pH 7.4. All data points were collected in duplicate or greater.
(§3) The data were processed and analyzed with Biacore 8K Evaluation Software Version 4.0.8.20368 (Cytiva, Global Life Sciences Solutions USA LLC, Marlborough, MA). Reference responses from flow cell 1 were subtracted from the active responses from flow cell 2 to obtain the subtracted data (2-1). The responses from the nearest buffer blank injection were then subtracted from the reference subtracted data (2-1) to yield double-referenced data. These double-reference data were fit to a simple 1:1 Langmuir binding model with mass transport to determine the apparent association (ka) and dissociation rate constants (kd). The apparent equilibrium dissociation constant or affinity constant was then calculated based on their ratio as (KD=kd/ka).

[2] = molecular target: T2, human SIRP-α V1 D1 domain-6His (human, UniProt P78324 31-149); experiment: as above
T2 construct: also called Analyte A
T2 sequence (P78324 other isoform, or with tags, fused parts or gaps limits assumed): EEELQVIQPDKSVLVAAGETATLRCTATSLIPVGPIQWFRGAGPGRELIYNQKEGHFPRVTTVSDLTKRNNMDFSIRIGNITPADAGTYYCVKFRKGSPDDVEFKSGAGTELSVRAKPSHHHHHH
Experimental: as §1, §2, §3

[3] = molecular target: T3, Mouse SIRP-α normal D1 domain-6His (mouse); experiment: as above
T3 construct: also called Analyte D
T3 chain: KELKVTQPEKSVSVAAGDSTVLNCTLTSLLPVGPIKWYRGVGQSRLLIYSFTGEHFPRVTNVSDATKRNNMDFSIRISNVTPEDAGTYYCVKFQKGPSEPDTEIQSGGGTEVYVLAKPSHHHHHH
Experimental: as §1, §2, §3

[4] = molecular target: T4, Rat SIRP-α K32-N373-ECD-6His (rat, UniProt P97710 32-373); experiment: as above
T4 construct: K32-N373 in the name counts on the natural rat protein; also called Analyte E; Rat SIRPα-ECD
T4 sequence: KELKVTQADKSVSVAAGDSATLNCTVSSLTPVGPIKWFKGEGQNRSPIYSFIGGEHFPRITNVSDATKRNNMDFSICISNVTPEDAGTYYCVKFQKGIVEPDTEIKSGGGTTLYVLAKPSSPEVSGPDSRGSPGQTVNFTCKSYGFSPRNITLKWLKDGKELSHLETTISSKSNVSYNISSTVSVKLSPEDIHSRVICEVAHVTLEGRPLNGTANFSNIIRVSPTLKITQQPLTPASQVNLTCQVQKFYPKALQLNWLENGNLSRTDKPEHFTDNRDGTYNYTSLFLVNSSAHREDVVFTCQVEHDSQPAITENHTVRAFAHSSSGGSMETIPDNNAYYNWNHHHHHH
Experimental: as §1, §2, §3

[5] = molecular target: T5, Cyno SIRP-α V4 D1 domain-6His-Avi (cynomolgus, limits assumed); experiment: as above
T5 construct: also called Analyte C
T5 chain: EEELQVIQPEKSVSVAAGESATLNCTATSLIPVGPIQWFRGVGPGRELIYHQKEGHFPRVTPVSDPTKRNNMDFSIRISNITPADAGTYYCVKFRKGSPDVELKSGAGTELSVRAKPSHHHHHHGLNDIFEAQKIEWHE
Experimental: as §1, §2, §3

[6] = molecular target: T1, human SIRP-α V2 D1 domain-6His; experiment: SPR (Biacore 8K), conjugate captured on Protein A chip, His-tagged SIRP-α as analyte, single cycle kinetics; pH 6.0, 37 C
Experimental: as §1, §2, §3

[7] = molecular target: T2, human SIRP-α V1 D1 domain-6His; experiment: as above
Experimental: as §1, §2, §3

[8] = molecular target: T3, Mouse SIRP-α normal D1 domain-6His; experiment: as above
Experimental: as §1, §2, §3

[9] = molecular target: T4, Rat SIRP-α K32-N373-ECD-6His; experiment: as above
Experimental: as §1, §2, §3

[10] = molecular target: T5, Cyno SIRP-α V4 D1 domain-6His-Avi; experiment: as above
Experimental: as §1, §2, §3

[11] = molecular target: T1, human SIRP-α V2 D1 domain-6His; experiment: SPR (Biacore 8K), conjugate captured on Protein A chip, His-tagged SIRP-α as analyte, single cycle kinetics; pH 6.0, 25 C
Experimental: as §1, §2, §3

[12] = molecular target: T2, human SIRP-α V1 D1 domain-6His; experiment: as above
Experimental: as §1, §2, §3

[13] = molecular target: T3, Mouse SIRP-α normal D1 domain-6His; experiment: as above
Experimental: as §1, §2, §3

[14] = molecular target: T4, Rat SIRP-α K32-N373-ECD-6His; experiment: as above
Experimental: as §1, §2, §3

[15] = molecular target: T5, Cyno SIRP-α V4 D1 domain-6His-Avi; experiment: as above
Experimental: as §1, §2, §3

[16] = molecular target: T1, human SIRP-α V2 D1 domain-6His; experiment: SPR (Biacore 8K), conjugate captured on Protein A chip, His-tagged SIRP-α as analyte, single cycle kinetics; pH 7.4, 25 C
Experimental: as §1, §2, §3

[17] = molecular target: T2, human SIRP-α V1 D1 domain-6His; experiment: as above
Experimental: as §1, §2, §3

[18] = molecular target: T3, Mouse SIRP-α normal D1 domain-6His; experiment: as above
Experimental: as §1, §2, §3

[19] = molecular target: T4, Rat SIRP-α K32-N373-ECD-6His; experiment: as above
Experimental: as §1, §2, §3

[20] = molecular target: T5, Cyno SIRP-α V4 D1 domain-6His-Avi; experiment: as above
Experimental: as §1, §2, §3

T1 sequence (chain, as listed by the source limits assumed): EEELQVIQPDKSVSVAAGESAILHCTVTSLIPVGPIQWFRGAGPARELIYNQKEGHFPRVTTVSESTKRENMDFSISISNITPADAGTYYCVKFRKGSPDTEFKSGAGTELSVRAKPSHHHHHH

Kd [1]: 0.51 nM
Kd [2]: 0.28 nM
Kd [3]: 1.63 nM
Kd [4]: 175 nM
Kd [5]: 0.71 nM
Kd [6]: 0.01 nM
Kd [7]: < 0.001 nM
Kd [8]: 0.07 nM
Kd [9]: 8.5 nM
Kd [10]: 0.1 nM
Kd [11]: < 0.001 nM
Kd [12]: < 0.001 nM
Kd [13]: < 0.001 nM
Kd [14]: 3.8 nM
Kd [15]: 0.05 nM
Kd [16]: 0.23 nM
Kd [17]: 0.1 nM
Kd [18]: 0.69 nM
Kd [19]: 61.4 nM
Kd [20]: 0.45 nM
B1: anti-SIRP-α antibody-CpG oligonucleotide conjugate (human IgG4 heavy chain SEQ ID NO:66, light chain SEQ ID NO:73, conjugated to CpG oligo 7-7, SEQ ID NO:35) (antibody, V domains shown)
VH: EVQLVESGGGVVQPGGSLRLSCAASGFTFSSNAMSWVRQAPGKGLEWVAGISAGGSDTYYPASVKGRFTISRDNSKNTLYLQMNSLRAEDTAVYYCARETWNHLFDYWGQGTLVTVSS
VL: SYELTQPPSVSVSPGQTARITCSGGSYSSYYYAWYQQKPGQAPVTLIYSDDKRPSNIPERFSGSSSGTTVTLTISGVQAEDEADYYCGGYDQSSYTNPFGGGTKLTVLG
modifications: CpG oligo 7-7 (SEQ ID NO:35) with PEG linker attached by an amide bond to the glutamine of the C-terminal Q-tag RPQGFGPP; the general method pools DAR1 fractions (one CpG per antibody)
notes: The oligonucleotide payload is not a protein; also called anti-SIRP-α antibody conjugate; anti-hIgG4 SIRP-α conjugate
